{"source": "paper PMC5447866", "about": "(Oncogene, 2016)", "binders": {"B1": {"name": "GST-tagged MOAP-1 recombinant protein (natural protein, UniProt Q96BY2 1-351, looked up)", "chain": "MTLRLLEDWCRGMDMNPRKALLIAGISQSCSVAEIEEALQAGLAPLGEYRLLGRMFRRDENRKVALVGLTAETSHALVPKEIPGKGGIWRVIFKPPDPDNTFLSRLNEFLAGEGMTVGELSRALGHENGSLDPEQGMIPEMWAPMLAQALEALQPALQCLKYKKLRVFSGRESPEPGEEEFGRWMFHTTQMIKAWQVPDVEKRRRLLESLRGPALDVIRVLKINNPLITVDECLQALEEVFGVTDNPRELQVKYLTTYQKDEEKLSAYVLRLEPLLQKLVQRGAIERDAVNQARLDQVIAGAVHKTIRRELNLPEDGPAPGFLQLLVLIKDYEAAEEEEALLQAILEGNFT"}}, "molecular_target": "His6-tagged UBR5 recombinant protein (UniProt O95071 1-2799)", "sequence (O95071 whole entry)": "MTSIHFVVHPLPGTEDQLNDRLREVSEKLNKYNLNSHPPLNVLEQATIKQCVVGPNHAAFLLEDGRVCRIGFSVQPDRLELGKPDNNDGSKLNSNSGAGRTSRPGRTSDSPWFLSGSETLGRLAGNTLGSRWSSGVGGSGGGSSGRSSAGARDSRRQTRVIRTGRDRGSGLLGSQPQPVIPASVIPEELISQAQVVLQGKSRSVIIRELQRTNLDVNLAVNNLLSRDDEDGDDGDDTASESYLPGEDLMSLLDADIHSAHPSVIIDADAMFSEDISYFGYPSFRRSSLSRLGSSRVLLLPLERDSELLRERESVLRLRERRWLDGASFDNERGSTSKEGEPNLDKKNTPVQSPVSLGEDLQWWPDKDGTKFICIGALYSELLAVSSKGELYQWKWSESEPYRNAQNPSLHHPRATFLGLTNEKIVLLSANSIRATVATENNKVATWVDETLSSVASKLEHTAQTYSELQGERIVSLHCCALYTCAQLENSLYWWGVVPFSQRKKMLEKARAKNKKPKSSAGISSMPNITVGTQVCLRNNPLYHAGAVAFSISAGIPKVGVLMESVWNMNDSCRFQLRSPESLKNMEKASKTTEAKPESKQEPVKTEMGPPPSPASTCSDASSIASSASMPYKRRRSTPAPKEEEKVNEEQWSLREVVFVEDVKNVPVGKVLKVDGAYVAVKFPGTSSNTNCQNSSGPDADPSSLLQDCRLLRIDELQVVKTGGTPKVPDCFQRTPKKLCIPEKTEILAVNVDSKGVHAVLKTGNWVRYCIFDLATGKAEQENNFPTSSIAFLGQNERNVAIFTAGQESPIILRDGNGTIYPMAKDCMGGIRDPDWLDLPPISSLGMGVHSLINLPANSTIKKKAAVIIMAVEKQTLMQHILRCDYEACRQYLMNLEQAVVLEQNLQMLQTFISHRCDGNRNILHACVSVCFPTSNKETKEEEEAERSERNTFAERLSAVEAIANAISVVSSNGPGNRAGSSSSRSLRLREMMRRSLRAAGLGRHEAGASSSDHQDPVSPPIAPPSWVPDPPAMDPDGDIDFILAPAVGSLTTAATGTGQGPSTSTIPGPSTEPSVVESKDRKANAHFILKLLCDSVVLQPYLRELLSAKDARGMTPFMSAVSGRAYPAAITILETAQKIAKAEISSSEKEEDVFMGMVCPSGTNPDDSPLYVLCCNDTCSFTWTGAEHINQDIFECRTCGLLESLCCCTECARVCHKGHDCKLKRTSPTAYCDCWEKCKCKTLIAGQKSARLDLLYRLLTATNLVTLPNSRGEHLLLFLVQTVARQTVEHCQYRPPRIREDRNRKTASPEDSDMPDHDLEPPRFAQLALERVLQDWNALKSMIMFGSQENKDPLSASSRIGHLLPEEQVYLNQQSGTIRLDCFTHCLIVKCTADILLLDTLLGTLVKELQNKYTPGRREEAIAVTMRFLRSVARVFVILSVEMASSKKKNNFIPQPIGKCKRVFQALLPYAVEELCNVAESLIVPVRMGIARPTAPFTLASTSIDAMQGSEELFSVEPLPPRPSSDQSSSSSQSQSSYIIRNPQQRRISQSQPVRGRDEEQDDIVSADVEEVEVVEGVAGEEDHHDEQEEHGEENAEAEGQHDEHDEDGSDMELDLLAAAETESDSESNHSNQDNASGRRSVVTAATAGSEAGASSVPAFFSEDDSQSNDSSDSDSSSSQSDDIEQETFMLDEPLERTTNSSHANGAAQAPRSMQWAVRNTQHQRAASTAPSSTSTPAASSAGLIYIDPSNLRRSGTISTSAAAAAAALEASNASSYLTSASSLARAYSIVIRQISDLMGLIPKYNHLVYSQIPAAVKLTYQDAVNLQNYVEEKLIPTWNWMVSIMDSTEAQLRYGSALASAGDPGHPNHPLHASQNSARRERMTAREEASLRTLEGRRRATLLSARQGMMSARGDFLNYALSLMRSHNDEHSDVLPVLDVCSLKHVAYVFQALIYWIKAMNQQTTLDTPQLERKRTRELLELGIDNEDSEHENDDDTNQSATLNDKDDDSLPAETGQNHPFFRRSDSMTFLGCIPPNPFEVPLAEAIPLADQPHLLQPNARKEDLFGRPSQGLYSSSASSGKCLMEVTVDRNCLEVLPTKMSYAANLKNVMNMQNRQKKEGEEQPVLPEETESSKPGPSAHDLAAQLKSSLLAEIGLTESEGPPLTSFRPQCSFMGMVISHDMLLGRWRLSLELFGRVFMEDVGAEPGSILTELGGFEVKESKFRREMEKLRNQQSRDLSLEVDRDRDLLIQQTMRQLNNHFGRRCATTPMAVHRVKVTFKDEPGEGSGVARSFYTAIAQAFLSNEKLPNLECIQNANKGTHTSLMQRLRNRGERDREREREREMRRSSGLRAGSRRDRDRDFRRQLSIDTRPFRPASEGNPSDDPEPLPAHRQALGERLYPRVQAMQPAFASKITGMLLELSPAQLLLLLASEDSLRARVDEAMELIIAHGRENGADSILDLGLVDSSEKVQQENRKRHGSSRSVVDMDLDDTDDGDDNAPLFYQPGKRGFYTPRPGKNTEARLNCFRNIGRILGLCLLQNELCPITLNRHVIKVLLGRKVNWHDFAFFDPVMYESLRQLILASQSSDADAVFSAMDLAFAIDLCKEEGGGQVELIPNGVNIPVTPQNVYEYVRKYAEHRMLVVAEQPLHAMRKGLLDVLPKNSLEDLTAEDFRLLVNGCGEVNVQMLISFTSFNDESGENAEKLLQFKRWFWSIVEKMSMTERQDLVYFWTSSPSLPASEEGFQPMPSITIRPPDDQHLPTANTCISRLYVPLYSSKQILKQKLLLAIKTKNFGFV", "test": "pull-down", "data": [{"binder": "B1", "values": [{"measurement": "binding result", "value": "binds"}]}]}
